# Measurements taken from paper PMC10967930.
# Tests used:
# [1] = biological target: human PF4 isolated from human platelets (human); experiment: other fluorescence titration
# [2] = biological target: full-length SARS-CoV-2 spike protein of original COVID-19 (SARS-CoV-2) (UniProt P0DTC2); experiment: ELISA
Substance,Kd [1],OD at 450 nm [2]
full-length SARS-CoV-2 spike protein of original COVID-19 (from UniProt P0DTC2) (natural protein),586 nM,–
human PF4 isolated from human platelets (natural protein),–,> 0.5
